In the supplement of paper PMC7125110:
± gives the standard error. For part of these data: This sample holds only a part of the variants without activity.

B1: glmS ribozyme (parent)
chain: AUAAAAGCGCCAGAACUACAGAAAUGUAGUUGACGAGGAGGAGGUUUAUCGAAUUUUCGGCGGAUGCCUCCAAA

Columns and labels:
Settings in all cases: with glucosamine-6-phosphate
glucosamine-6-phosphate [1] = variants of: B1; test: kcat; higher = faster cleavage; RNA array
Summary of the method: (§1)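 Over ~14 h at 37 °C, tiles were imaged as glucosamine-6-phosphate (40 μM to 10 mM) in HEPES/KCl/Mg(OAc)2 buffer flowed across sequenced MiSeq chips. The chips carried barcoded ribozyme variants transcribed in situ by E. coli RNA polymerase and tracked with a hybridised Cy3 probe. After normalisation to baseline and to non-cleaving reference variants, one- or two-exponential decay fits of per-tile medians gave kobs. kcat and KM followed from weighted Michaelis–Menten fits across concentrations.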

glucosamine-6-phosphate [2] = variants of: B1; test: self-cleavage kobs at 40 uM GlcN6P; higher = faster cleavage; RNA array
Summary of the method: as §1

glucosamine-6-phosphate [3] = variants of: B1; test: self-cleavage kobs at 160 uM GlcN6P; higher = faster cleavage; RNA array
Summary of the method: as §1

glucosamine-6-phosphate [4] = variants of: B1; test: self-cleavage kobs at 640 uM GlcN6P; higher = faster cleavage; RNA array
Summary of the method: as §1

glucosamine-6-phosphate [5] = variants of: B1; test: self-cleavage kobs at 2500 uM GlcN6P; higher = faster cleavage; RNA array
Summary of the method: as §1

glucosamine-6-phosphate [6] = variants of: B1; test: self-cleavage kobs at 10000 uM GlcN6P; higher = faster cleavage; RNA array
Summary of the method: as §1

glucosamine-6-phosphate [7] = variants of: B1; test: KM; higher = weaker cofactor use; RNA array
Summary of the method: as §1

Variant | kcat (glucosamine-6-phosphate [1]) [s⁻¹] | self-cleavage kobs at 40 uM GlcN6P (glucosamine-6-phosphate [2]) [s⁻¹] | self-cleavage kobs at 160 uM GlcN6P (glucosamine-6-phosphate [3]) [s⁻¹] | self-cleavage kobs at 640 uM GlcN6P (glucosamine-6-phosphate [4]) [s⁻¹] | self-cleavage kobs at 2500 uM GlcN6P (glucosamine-6-phosphate [5]) [s⁻¹] | self-cleavage kobs at 10000 uM GlcN6P (glucosamine-6-phosphate [6]) [s⁻¹] | KM (glucosamine-6-phosphate [7]) [µM]
A12U C71G | 0.00158 ± 0.00072 | 0.000203 ± 2.3e-05 | 0.000316 ± 5.2e-05 | 0.00125 ± 0.00015 | 0.000947 ± 0.00021 | 0.00305 ± 0.00048 | –
A12U G32A | 0.000902 ± 5.6e-05 | – | 6.52e-05 ± 9.5e-06 | 0.000203 ± 2.1e-05 | 0.000498 ± 5.1e-05 | 0.000735 ± 0.00013 | 2110 ± 200
A12U A42C | 2.16e-05 ± 2.9e-06 | < 1e-05 | – | – | 1.75e-05 ± 7.1e-06 | 1.89e-05 ± 8.5e-06 | –
A12G U45A | 0.00242 ± 0.00064 | 4.21e-05 ± 1.5e-05 | 0.000103 ± 1.6e-05 | 0.00041 ± 5.3e-05 | 0.000811 ± 0.00014 | 0.00207 ± 0.00031 | 3500 ± 1300
A12G U45C | 6.32e-05 ± 3.9e-06 | – | – | – | 3.29e-05 ± 1.6e-05 | 5.04e-05 ± 8e-06 | 2510 ± 620
A12G U45G | 0.000591 ± 1.8e-05 | – | – | 6.36e-05 ± 1.3e-05 | 0.000197 ± 4.2e-05 | 0.000386 ± 3.9e-05 | 5260 ± 300
A12G | 0.00143 ± 6.1e-05 | 1.01e-05 ± 1.5e-06 | 5.14e-05 ± 1.6e-06 | 0.000189 ± 3.5e-06 | 0.000587 ± 2.8e-05 | 0.001 ± 1.6e-05 | 4240 ± 270
A12U | 0.0933 ± 0.014 | 0.00275 ± 4.9e-05 | 0.00899 ± 0.00054 | 0.0283 ± 0.0012 | 0.049 ± 0.0042 | 0.0963 ± 0.0052 | 1340 ± 230
A12G C70A | 0.000118 ± 8.6e-06 | – | – | 4.35e-05 ± 7.9e-06 | 7.34e-05 ± 1.3e-05 | 0.000108 ± 9.4e-06 | 1110 ± 270
A12G A53U | 0.00085 ± 8.4e-05 | – | 2.34e-05 ± 7.6e-06 | 0.000112 ± 1e-05 | 0.000319 ± 3e-05 | 0.00058 ± 6.7e-05 | 4340 ± 620
A12G A53G | 0.0017 ± 0.00017 | – | 5.44e-05 ± 7.9e-06 | 0.000231 ± 3.1e-05 | 0.000633 ± 7e-05 | 0.00114 ± 0.00015 | 4470 ± 620
A12G G29U C67G | 7.88e-05 ± 1.7e-05 | – | – | – | – | 6.04e-05 ± 1.4e-05 | –
A12U A48U | 0.0014 ± 0.00052 | – | 7.62e-05 ± 1.5e-05 | 0.00024 ± 3.3e-05 | 0.000479 ± 6.9e-05 | 0.00139 ± 0.00023 | –
A12U A64U | 0.00027 ± 2.8e-05 | – | – | 5.21e-05 ± 5.8e-06 | 0.000168 ± 1.8e-05 | 0.000211 ± 1.4e-05 | 2420 ± 540
A12U A64C | 0.000692 ± 7.8e-05 | – | 4.03e-05 ± 1.6e-05 | 0.000107 ± 1.6e-05 | 0.000264 ± 3.9e-05 | 0.000531 ± 7.6e-05 | 3580 ± 660
A12C U47G | 0.00307 ± 0.00048 | 9.09e-05 ± 1.3e-05 | 0.000267 ± 4.4e-05 | 0.00106 ± 0.00014 | 0.00247 ± 0.00041 | 0.00245 ± 0.00036 | 1400 ± 310
A12C U47A | 0.011 ± 0.0034 | 0.000246 ± 4.3e-05 | 0.00131 ± 0.00027 | 0.00346 ± 0.00056 | 0.00529 ± 0.00087 | 0.014 ± 0.0025 | 1620 ± 740
A12C U47C | 0.00284 ± 0.00039 | 5.87e-05 ± 6.2e-06 | 0.000185 ± 3.6e-05 | 0.000953 ± 0.00013 | 0.00187 ± 0.00022 | 0.00226 ± 0.0002 | 1840 ± 380
A12G A42U | 4.92e-05 ± 2.6e-06 | – | – | – | – | 1.63e-05 ± 6.6e-06 | –
A12U G13U | 0.000141 ± 9.1e-06 | – | – | 5.07e-05 ± 9.6e-06 | 9.95e-05 ± 1.1e-05 | 0.000123 ± 1.8e-05 | 1130 ± 200
A12U C50A | 0.000111 ± 2.6e-06 | – | – | 3.27e-05 ± 1.3e-05 | 6.47e-05 ± 1.4e-05 | 9.58e-05 ± 1.2e-05 | 1660 ± 130
A12G G62C | < 1e-05 | – | – | – | – | < 1e-05 | 151 ± 74
A12C U57C | 0.000312 ± 5.1e-05 | – | – | 4.73e-05 ± 1.2e-05 | 9.32e-05 ± 1.7e-05 | 0.000214 ± 2.2e-05 | 4850 ± 1600
A12C U57A | 0.000102 ± 2.4e-05 | – | – | 5.75e-05 ± 1.5e-05 | 6.14e-05 ± 1.2e-05 | 0.000113 ± 1.9e-05 | –
A12G G63C | < 1e-05 | – | < 1e-05 | – | – | < 1e-05 | –
A12G A42U A53C | < 1e-05 | < 1e-05 | – | – | – | – | –
A12G A14G | 0.00308 ± 0.00041 | 2.51e-05 ± 6.2e-06 | 8.41e-05 ± 1.3e-05 | 0.000405 ± 4.5e-05 | 0.00121 ± 0.00015 | 0.00203 ± 0.00016 | 4770 ± 950
A12C U55C | 0.00941 ± 0.0032 | 0.000147 ± 2.6e-05 | 0.000402 ± 8.8e-05 | 0.00235 ± 0.00034 | 0.00417 ± 0.00083 | 0.00731 ± 0.0019 | 2710 ± 1200
A12C U55A | 0.0159 ± 0.0051 | 0.000742 ± 8.1e-05 | 0.00192 ± 0.00036 | 0.00819 ± 0.0014 | 0.0112 ± 0.0021 | – | 888 ± 360
A12G A14U C58A G66C | 0.000245 ± 7.5e-05 | – | – | – | – | 8.77e-05 ± 2.7e-05 | –
